Measured values as given in the nanobody polyreactivity screen of Harvey et al. (2022).

Assay: yeast display, Sf9 membrane polyspecificity reagent, FACS + sequencing; frameworks hold sequencing errors
How it was run: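 A nanobody's polyreactivity label depends on the gate it was sorted from. Yeast display cells were stained with 10% biotinylated, detergent-solubilized Sf9 membrane reagent for 1 hour at 4 °C, enriched on streptavidin microbeads and sorted by FACS. The low and high (top ~1%) gates were set on anti-HA fluorescence for expression and streptavidin fluorescence for reagent binding.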

Row | Sequence | polyreactivity (PSR sort gate)
1 | QVQLVESGGGLVQAGGSLRLSCAASGSIFDPYAMGWYRQAPGKERELVAAIDYSGGSTYYADSVKGRFTISRDNAKNTVYLQMNSLKPEDTAVSYCAADYFWLYYSEYGYWGQGTQVTVSS | low polyreactivity
2 | QVQLVESGGGLVQAGGSLRLSCAASGSIFDPYAMGWYRQAPGKERELVAAIRWGGGTTYYADSVKGRFTISRDNSKITVSLQMNSLKPEDTAVYYCAASWDWYDYWYDYWGQGTQVTVSS | high polyreactivity
3 | QVQLVESGGGLVQAGGSLRLSCAASGSIFDPYAMGWYRQAPGKERELVAAISGSGGSTYYADSVKGRFTISRDNAKNTVYLQMNSLKPEDTALYFCAAADAWWGRRYKYYHWGQGPQVTVSS | low polyreactivity
4 | QVQLVESGGGLVQAGGSLRLSCAASGSIFDPYAMGWYRQAPGKERELVAAITSDGSTNYADSVKGRFTISRDNAKNTVYLQMNSLKPEDTAVYYCAARYNLGEYDYWGQGTQVTVSS | low polyreactivity
5 | QVQLVESGGGLVQAGGSLRLSCAASGSIFDPYAMGWYRQAPGKERELVAGISFSGGRTYYADSVKGRFTISRDNAKNTVYLQMNSLKPEDTAVYYCNKLLTQGAYPYYYWGQGTQVTVSS | high polyreactivity
6 | QVQLVESGGGLVQAGGSLRLSCAASGSIFDQYAMGWYRQAPGKERELVAGISSNGGTSTYYADSVKGRFTISRDNAKNTVYLQMNSLKAEDTAVYYCAAQSHYVDQYGYWGQGTQVTVSS | low polyreactivity
7 | QVQLVESGGGLVQAGGSLRLSCAASGSIFDRNAMGWYRQAPGKERELVAAINSNAGITYYADSVKGRFTISRDNAKITVYLQMNSLKPEDTAVYYCAADIRVVYREDHWGQGTQVTVSS | low polyreactivity
8 | QVQLVESGGGLVQAGGSLRLSCAASGSIFDRNAMGWYRQAPGKERELVATITWSGVSTYYADSVKGRFTISRDNAKNTVYLQMKSLKPEDTAVYYCYADYSYRHWYDPGQYGQAMGYWGQGTKVTVSS | low polyreactivity
9 | QVQLVESGGGLVQAGGSLRLSCAASGSIFDRNAMGWYRQAPGKERELVSAISRGGRTYYADSVKGRFTISRDNAKNTVYLQMNSLKPEVTAVYYCAAGYPSAWAYTTDDYWGQGTQVTVSS | low polyreactivity
10 | QVQLVESGGGLVQAGGSLRLSCAASGSIFDRYVMGWYRPAPGKERELVAAISKSGGNTYYADSVKGRFTISRDYEKNTVYLQMNSLKPEDTAVYYCNARSGRYYLGYGYWGQGTQVTVSS | high polyreactivity
11 | QVQLVESGGGLVQAGGSLRLSCAASGSIFDSNAMGWYRQAPGKERELVAAINRSDASTYYADSVKGRFTISRDNAKNTDYLQMTSPQPEGTAVYYCGVEVYVYNVHIYDYWGQGTQVTVSS | low polyreactivity
12 | QVQLVESGGGLVQAGGSLRLSCAASGSIFDSNAMGWYRQAPGKERELVAAMDDAGATTYYADSVQGRFTISRDNAKNTVYLQMNSLKPEDTAVYYCAAETYTGSLAYYRVYYYWGQGTQVTVSS | low polyreactivity
13 | QVQLVESGGGLVQAGGSLRLSCAASGSIFDSNAMGWYRQAPGKERELVATISSVGSTNYADSVKGRFTISRDNAKNTVYLQMNSLKPEDTAVYYCARVVDAQGYYSAASGGYYWGQGTQVTVSS | low polyreactivity
14 | QVQLVESGGGLVQAGGSLRLSCAASGSIFDSNTRGWYRQAPGKERELVAAINWSGGRTYYADSVKGRFTISRDNPNNTVYLQMNSLKPEDTAVYYCARPSYYATYYPQPFGYNYWGQGTQVTVSS | high polyreactivity
15 | QVQLVESGGGLVQAGGSLRLSCAASGSIFDSYAMGWSRQAPGKERELVAAISSGGSTNYADSVKGRFTISRDNEKNTVILQMYSLKTEDTAVYFCAADGSLDAYNYWGQGTQVSVSS | low polyreactivity
16 | QVQLVESGGGLVQAGGSLRLSCAASGSIFDSYAMGWYRQAPGKERELVAAISRIGGTTYYADSVKGRFTISRDNAKNTVYLQMNTLKPEDTAVYYCAAGPLLPRYSQYGYWGLGTQVTVSS | low polyreactivity
17 | QVQLVESGGGLVQAGGSLRLSCAASGSIFDSYAMGWYRQAPGKERELVAAISRSGSRTYYADSVKGRFTISRDNAKNTVYLQMNSLKPEDTAVYYCAAGLSGYSRKIYYWGQGTQVTVSS | high polyreactivity
18 | QVQLVESGGGLVQAGGSLRLSCAASGSIFDSYVMGWYRHAPGKERELVAAITYSGGSTYADSVKGRFTISRDNAQNTVDLQMNSLKPEDTAVYYCAAASSFYLYLLEDYWGQGTQVTVSS | low polyreactivity
19 | QVQLVESGGGLVQAGGSLRLSCAASGSIFDTNAMGWYRQAPGKERELVAAISFSGVRTYYADSVKGRFTISRDNAKNTVYLLMNSLKPEDTAVYYCNRLRISPGWRYNYWGQGTQVTVSS | high polyreactivity
20 | QVQLVESGGGLVQAGGSLRLSCAASGSIFDVNAMGWYRPAPGKERELVAAISDSGGSTYYADSVKGRFTISRDNAKNTVYLQMNSLQPQDTAVYSCNADWSWYNYYDFDYWGQGTQVTVSS | low polyreactivity
21 | QVQLVESGGGLVQAGGSLRLSCAASGSIFDVNAMGWYRQAPGKEREFVASITWSGGSTYYADSVKGRFTISRDNAKNTVYLQMNSLKPEDTAVYYCAARPVWVSGYLQYVYCGQGTQVTVSS | low polyreactivity
22 | QVQLVESGGGLVQAGGSLRLSCAASGSIFDVNAMGWYRQAPGKERELVAAITWSGGITYYADSVKGRFTISRDNAKNTVYLQMNSLKPEDTAVYYCNVYVTAGEEDEYWGQGTQVTVSS | low polyreactivity

Row | Sequence | polyreactivity (PSR sort gate)
23 | QVQLVESGGGLVQAGGSLRLSCAASGSIFDVYAMGWYRQAPGKERELVAAIRTRGGSTYYADSVKGRFTISRDNAKNTVYLQMNSLKPEDTAVYYCAAYPLVSWGRHGTKGDYWGQGTQVTVSS | low polyreactivity
24 | QVQLVESGGGLVQAGGSLRLSCAASGSIFDVYAMGWYRQAPGKERELVAAITGGGSTYYADSVKGRFTISRDNAKNTVYLQMNSLKPEDTAVYYCNADRRRRSGGFAGWHFQRNDYWGQGTQVTVSS | low polyreactivity
25 | QVQLVESGGGLVQAGGSLRLSCAASGSIFDVYTMGWYRQAPGKERELVAAISWSGGSTFYADSVKGRFTISRDNAKNTVYLQMNSLKPEDTAVYYCAARSYWRQYGRYGSWGQGTQVTVSS | high polyreactivity
26 | QVQLVESGGGLVQAGGSLRLSCAASGSIFDVYTMGWYRQAPGKVRELVAAINTGGGSTYYADSVMGRFTISRDNAKNTVYLEMNSLKPEDTAVYYCAASVYHYGPLYYWGEGTQVTVSS | low polyreactivity
27 | QVQLVESGGGLVQAGGSLRLSCAASGSIFDWNAMGWYRQAPGKERELVATISWDGGSTYYADSVKGRFTISRDNSKNTVYLQMNSLKPEDTAVYYCATVFTGKPAYYARTKYDYWGQGTQVTVSS | low polyreactivity
28 | QVQLVESGGGLVQAGGSLRLSCAASGSIFDWYAMGWYRKAPGTERELVAAINEGGGSTYYADSVKGRFTISRDNAKNTVYLQMNSLKPEDTAVYYCAAGDYYLQDNYWGQGTQVTVSS | low polyreactivity
29 | QVQLVESGGGLVQAGGSLRLSCAASGSIFDYNAMGWYRQAPGKERELVAAITSGTSTNYADSVKGRFTISRDNAKNTVYLQMNSLKPEDTAVYYCAADPVWAYDYWGQGTQVTVSS | low polyreactivity
30 | QVQLVESGGGLVQAGGSLRLSCAASGSIFDYNAMGWYRQAPGKERELVAAITYSGGTTYADSVKGRFTISRDNAKNTVYLQMNSLKPEDTAVYYCAATSYARFAYYYWGQGTQVTVSS | low polyreactivity
31 | QVQLVESGGGLVQAGGSLRLSCAASGSIFDYYAMGWYRQAPGKERELVAAINISGGDTYYADSVKGRFTISRDNAKNTVYLQMNSLKPEDTAVYYCAADWVTWWFSRVGWDYGYWGQGTQVTVSS | low polyreactivity
32 | QVQLVESGGGLVQAGGSLRLSCAASGSIFDYYAMGWYRQAPGKERELVAAISNGRTTNYADSVKGRFTISRDNAKNTVYLQMNSLKPEDTAVYYCNADSALYDKAVIYSEYDYWGQGTQVTVSS | low polyreactivity
33 | QVQLVESGGGLVQAGGSLRLSCAASGSIFDYYAMGWYRQAPGKERELVAAISSSGDTTYYADSVKGRFTISRDTAKNTVYLQMNSLKPEDTAVYYCAARVRGYRHASNYYWGQGTQVTVSS | high polyreactivity
34 | QVQLVESGGGLVQAGGSLRLSCAASGSIFDYYAMGWYRQAPGKERELVAAISTSTSSTYYADSVKGRFTISRDNAKNTVYFQMNSLKPEDTAVYYCAAEGESQPESPGYDYWGQGTQVTVSS | low polyreactivity
35 | QVQLVESGGGLVQAGGSLRLSCAASGSIFEENAMGWYRQAPGKERELVAAINTRGGSTYYADSVKGRFTLSRDNAKNTVYLQMNSLKPEDTAVYYCALISRYYYWGQGTQVTVSS | high polyreactivity
36 | QVQLVESGGGLVQAGGSLRLSCAASGSIFEENAMGWYRQAPGKERELVAAITIGGRTNYADSVYGRFTISRDNAKNTVYLQMNSLKPEDTAVYYCAADLSSNKYWRFWTRYYYWGQGTQVTVSS | low polyreactivity
37 | QVQLVESGGGLVQAGGSLRLSCAASGSIFEEYAMGWYRQAPGKERELVARIDESGGSTYYADSVKGRFTISRDNAKNTVYLQMHSLKPEDSAVYYCAAVVTAQAYAYFTYGYDYWGQGTQVTVSS | low polyreactivity
38 | QVQLVESGGGLVQAGGSLRLSCAASGSIFEEYAMGWYRQAPGKERELVARIDESGGSTYYADSVKGRFTISRDTAKNTVYLQMNSLKPEDTAVYYCAAERYSDSWGYYSVDEGSWEMDYWGQGTQVTVSS | low polyreactivity
39 | QVQLVESGGGLVQAGGSLRLSCAASGSIFEGYAMGWYRQAPGKERELVADITSGGSTYYADSVKGRFTISRDNAKNTVYLQMNSLKPEDNAVYYCNRDYHWIELVYPDDRREYDYWGQGTQVTVSS | low polyreactivity
40 | QVQLVESGGGLVQAGGSLRLSCAASGSIFEGYVMGWYRQAPGKERELVAGISRGSRTNYADSVKGRFTISRDNAKNTVYLQMNSLKPEDTAVYYCAAEYWGVYRGFVSSFDYWGQGTQVTVSS | high polyreactivity
41 | QVQLVESGGGLVQAGGSLRLSCAASGSIFEIYAMGWYRQAPGKERELVAAISWSGGRTYYADSVKGRFTISRDNAKNTVYLQMNSLKPEDTAVYYCNAGQWRYPGLYYYWGQVTQVTVSS | high polyreactivity
42 | QVQLVESGGGLVQAGGSLRLSCAASGSIFELNAMGWYRQAPGKERELVAAITSSGSSTYYADSVKGRFTISRDNAKNTVYLQMNSLKPEDTAVYYGFRPHDYWGQGTQVTVSS | low polyreactivity
43 | QVQLVESGGGLVQAGGSLRLSCAASGSIFEPNAKGWYRQAPGKERELVAVINYSGGSTYYADSVKGRFTISRDNAKNTVYLQMNSLKPEDTAVYYCAASHYHYRYGTPQPEYNYWGQGTQVTVSS | low polyreactivity
